Measurements published in PMC8624677 (The Journal of Cell Biology, 2021).
Residue numbers refer to the chain shown, from its start. Names and notes keep the numbering of the source.

Key:
FRET or BRET = target: the molecule itself; assay: FRET or BRET
PIFE = target: the molecule itself; assay: PIFE

B1: cyt-ATL2(1–467) S308C (also C59A, C143A, C395N, and C441A) (domain or fragment, human, UniProt Q8NHH9 1-467, looked up)
chain: MAEGDEAARGQQPHQGLWRRRRTSDPSAAVNHVSSTTSLGENYEDDDLVNSDEVMKKPAPVQIVLAHEDDHNFELDEEALEQILLQEHIRDLNIVVVSVAGAFRKGKSFLLDFMLRYMYNKDSQSWIGGNNEPLTGFTWRGGAERETTGIQVWNEVFVIDRPNGTKVAVLLMDTQGAFDSQSTIKDCATVFALSTMTSSVQVYNLSQNIQEDDLQHLQLFTEYGRLAMEEIYQKPFQTLMFLIRDWSYPYEHSYGLEGGKQFLEKRLQVKQNQHEELQNVRKHIHNCFSNLGCFLLPHPGLKVATNPCFDGRLKDIDEDFKRELRNLVPLLLAPENLVEKEISGSKVTCRDLVEYFKAYIKIYQGEELPHPKSMLQATAEANNLAAVAGARDTYNKSMEQVCGGDKPYIAPSDLERKHLDLKEVAIKQFRSVKKMGGDEFARRYQDQLEAEIEETYANFIKHNDGKN
modifications: Alexa Fluor 488 (donor) or 647 (acceptor) maleimide on the engineered G-domain cysteine S308C
- binding result (FRET or BRET): binds

B2: cyt-ATL2 H462C (also C59A, C143A, C395N, and C441A) (domain or fragment, human, UniProt Q8NHH9 1-467, looked up)
chain: B1 chain with C308S, H462C
modifications: Cy3 maleimide on the engineered 3HB cysteine H462C
- binding result (PIFE): binds

B3: cyt-DATL(1–415) S270C (domain or fragment)
chain: MGGSAVQVINASEEHTFVLNEDALSEVLMRDEVKDRFVCVVSVAGAFRKGKSFLLDFFLRYMYSKYVHHDATDWLGGESDPLEGFSWRGGSERDTTGILMWSDIFLHDYPNGDKIAIILLDTQGAFDSQSTVRDCATVFALSTMLSSVQIYNLSQNIQEDDLQHLQLFTEYGRLALADTGKKPFQRLQFLVRDWSFPYEAEYGALGGDKILKRRLEVSDKQHPELQSLRRHISSCFTEVACFLMPHPGLNVATNPKFDGRLQDITPEFKCSLRSLVPMLLAPDNLVYKEISGQRVRARDLIQYFQSYMNIYKGNELPEPKSMLVATAEANHLTAVAAAKELYGQLMEEVCGGTRPYLSTAHLQTEHLRVKDKALFQFAAKRKMGGEEFTEKFRKQLEDDLEEVFTNYQAHNESKN
modifications: Alexa Fluor 488 (donor) or 647 (acceptor) maleimide on the engineered G-domain cysteine S270C
- binding result (FRET or BRET): binds

B4: cyt-DATL H410C (domain or fragment)
chain: B3 chain with C270S, H410C
modifications: Cy3 maleimide on the engineered 3HB cysteine H410C
- binding result (PIFE): binds

B5: cyt-ATL1(1–446) N281C (domain or fragment, human, UniProt Q8WXF7 1-446, looked up)
chain: MAKNRRDRNSWGGFSEKTYEWSSEEEEPVKKAGPVQVLIVKDDHSFELDETALNRILLSEAVRDKEVVAVSVAGAFRKGKSFLMDFMLRYMYNQESVDWVGDYNEPLTGFSWRGGSERETTGIQIWSEIFLINKPDGKKVAVLLMDTQGTFDSQSTLRDSATVFALSTMISSIQVYNLSQNVQEDDLQHLQLFTEYGRLAMEETFLKPFQSLIFLVRDWSFPYEFSYGADGGAKFLEKRLKVSGNQHEELQNVRKHIHSCFTNISCFLLPHPGLKVATNPCFDGKLKEIDDEFIKNLKILIPWLLSPESLDIKEINGNKITCRGLVEYFKAYIKIYQGEELPHPKSMLQATAEANNLAAVATAKDTYNKKMEEICGGDKPFLAPNDLQTKHLQLKEESVKLFRGVKKMGGEEFSRRYLQQLESEIDELYIQYIKHNDSKNIFHAAR
modifications: Alexa Fluor 488 (donor) or 647 (acceptor) maleimide on the engineered G-domain cysteine N281C
- binding result (FRET or BRET): binds

B6: cyt-ATL1 H435C (domain or fragment, human, UniProt Q8WXF7 1-446, looked up)
chain: B5 chain with C281N, H435C
modifications: Cy3 maleimide on the engineered 3HB cysteine H435C
- binding result (PIFE): binds
